# Reference: the DeepSol protein solubility set
# Experiment: soluble on expression in E. coli; label from the status in PepcDB or PDB records
row,Sequence,soluble on expression in E. coli
1,MQNVVGIDFQKSGKMEYYSPKGFDLDVGDWVVVESKRGLEMGRVKYAPLDVADQDVTLPLKEIVRLATEDDLLQYEKNEYDADEAMALCKETIQQHELEMRLVNCEYTLDKSKVIFNFTSDERVDFRKLVKVLAQKLKTRIELRQIGVRDEAKLLGGIGPCGRSLCCSTFLGDFEPVSIKMAKDQNLSLNPTKISGACGRLMCCLKYENDYYEEARAQLPDVGDAIETPEGNGKVIGLNILDISMQVKVEGLEQPLEYKMEELETLNLEHHHHHH,not soluble
2,MAHHHHHHMRNLSDQFPVEDSPMNARRQMANGDDHSQRDSPMNHDVAHTYEGNTLDGHLTKAESASMTKTPTAAANGACANSAPSEYVVAKERLEAARAAHKQRLREIKDDKSLKIKSMPSLEELRDERVRLSEQVLHHKDEQDSLALDIEGLEGAAEVYQLAARVQRLEHFANRAYEYAEETLPRDIERTLEEDRQLSNRELCAYIQELQSKRANTLKKVVASQEGMVKRNLRKGATATTAALGEDADPMEAKAVAHTQENKDECVVLHQKIRRFCAMRTKLQSDILKEKSASKKMEERMCAAIRTAELANARDARMCGELNNRNAAATTNSQLLIDQLNVGHYGLGNAPSTKQLLEDRKAREALLETTETDQQQYGRFVSSGSLGSRQSYANSQSSHQRAIKPPLVASKPTAAQRARDDASRSSREEFAQMLRRNSDGNSYQASRSQSLSKPPLVASKPTASQQSRETALRGEREEVSVSRTVARSNSLFSDVRPPSLAAKSTASQRSRDRQ,not soluble
3,MSLERQEHSPLILLGEDEKFQATIVKDVLERKNFDVRIAPNGKVAYEMFCENRLFQLVIVDVFMPVVDGLRSVKLIRQYESNHQIERCPIIICSGNESIIRSGNNSQDTGGDAFVSKPFRPSLIDLVYKLIGKKEGHHHHHH,not soluble
4,GARNSVLRGKKADELERIRLRPGGKKKYRLKHIVWAANKLDRFGLAESLLESKEGCQKILTVLDPMVPTGSENLKSLFNTVCVIWCIHAEEKVKDTEGAKQIVRRHLVAETGTAEKMPSTSRPTAPSSEKGGNY,soluble
5,MHHHHHHSSGVDLGTENLYFQSMNLPEHWTDMNHQLFCMVQLEPGQSEYNTIKDKFTRTCSSYAIEKIERIQNAFLWQSYQVKKRQMDIKNDHKNNERLLFHGTDADSVPYVNQHGFNRSCAGKNAVSYGKGTYFAVDASYSAKDTYSKPDSNGRKHMYVVRVLTGVFTKGRAGLVTPPPKNPHNPTDLFDSVTNNTRSPKLFVVFFDNQAYPEYLITFTA,soluble
6,MSHSTYSLSFVASPSEEAQTALKELKAVYSDTPFEEADVIVALGGDGFMLQILNETMNSGKRVYGMNRGSVGFLMNDFRVEGLIQRIAVASGNDFHPLRMTTTDSDGDEFTALAMNEVSLFRQSHQAAKLRVEVDGKVRLEELICDGMMVATPAGSTAYNFSAHGPILPLESPLLALTPVSAFRPRRWRGALLPNKVTVDIHVLERDKRPVNAVADHTEVKSVRHVRIAQSQDRTAKILSDPDRSWSDRVLAEQFNNLEHHHHHH,not soluble
7,MINMEKCLLEKYNSLLEFFKNKKVIVAYSGGVDSTLISKIASDATKTLAVTVDNGFFSENVIKKAEDCAKKYNIPQKTEKIDYLNEITSKNLENRCYNCKKRIAEELKKIKNELNYDIIVDGTIYDDIFEDRPGIKAFHEENIISPLSDLKFNKNDVFEISKYLKIDIPKKDTCMATRILSAPISKENMAKSNLAEEFIKSNFHIESYLRVRYIENIAIIELTKNESEKIFDNDSIERINTELKKIGFEKVVIDLNFK,not soluble
8,MKLYLIGLGPGDPELLTLKALRLIQRLPVLFYPKEEGREPVALGIARPFLPEGKPLLPLPLFTGGDPKEAERARREAARRVREALSRYGEGGYLVLGDSLLYASPLNLLPHLEGVAVEAVPGISAHQLAAASLLKPIALGEEGFAAVTGLGPVDPEGLDRFQSVFVYKAKDLEALERAFPDREGWAFLRLGMPGERVLPLGAAKGVARDYWTLVGLWRKGGEG,soluble
9,MRAIIIGIGQCGTKIADIFSLVDFEALAINTSKSDLEYLKHIPPERRILVGESIVGGKGVNANPLLGREAMKRDLPMVMKKISSLVGYEDVDIFFLTFGFGGGTGAGGTPVLAEALKEEYPDSLVVAIGALPLKEEGIRPTINAAITIDKLSRIVDSIIAIDNNKLKESDEDISQAYEKINYAIVERIASLLALIDVPGEQTLDASDLKFVLRAMGSFATVGYAKADATKIKSLSRLIIRSFENEGLYLDVNLESALYGLVAIHGPPEVLKAKEIFDALSELSQRIRGKQIFRGFYPDPREREVEVVTLLSGIYESKSIENIVITAKRYAREFMKAKEEGEMKKRELLKGLPDFEDIYPGEVDEG,soluble
10,MSLELRPLHPLDGLLKFAGLARSTFYYQQKVLLVDDKYAGLKDLIQATFYEHKGRYGYRRITAALRRAGHLVNHKTVQKLMGQLGLKSLIRVKKYRSYKGETGKAAPNLLKRDFKAQYLNQKWATDVTEFKVGGQKLYLSPIMDLYSGEIISYAIARRPLYSMVDEMLEGAFKRLGPHEKPILHSDQGWQYRMPIYQRLLNENSIAASMSRKGNCYDNAAIESFFSTLKSEFFYLNKFNDLDELQAGIEEYIEYYNHSRIKLKLNGLSPVEYRMQAAKAAEGHHHHHH,not soluble
11,AIATNDANHLESNCVEEQVQQSLREPWWWLRWRDTPRQQLRGTLFVYTATCPDEKIQRERGFAADHEQVYAFVSFGPEVETDPREHVVEIVKALTSMRSFVETLERTLFEDEDSEPAARTYTHDEPCSVAHHSADADQQFLVETVRHDRIAAAYSSMSQEMHTAPEGARPDCFSKGTSQDHETDTSQPILRKKDETDTWVVALGPDHLVASHTLAACGCALFLGLEWDFRACRSRSDDDFRIMELFQEDLKSRVTWLAPRLGLQHKHACSAQCKDQARNRDSSWDVLLREWLPQAIPGGPRHPQAM,soluble
12,MTSILNPVIRKEYSELKRPDLRGKFICASCGQHFQHNASLNRHRRLLHGNEHTCMMCDRKLNAKETIRDHMRNEHNLFQVFTCGCCNWSFSSKRQLSEHTKCIQGTGAPGDTIPIAKSCNAPGSLIQSTIQGTPPVVKTGRKRGGSLSSSSSVSTSISSRDVSGSPPPTEEEAERKVLFDNAVDTILQSKFFTYQQITEVDTWIKIIENANTLADTLQRINKTKKIKAEMPADKDVKRFKLEVE,not soluble
13,MFCSSNIPIRLRDKKENNSIIVLPGGSEKSAAGQWRPHLPT,not soluble
14,MAHHHHHHMKSHNLDLIKNQNFDKNHNFINYSELYKKYKEKYNVKSFNKLPVSTYTYPRYSKITNFDELKTELIYEKEINEIEEEYDDDDEQNNINNYDGNIEILFPMINEKENEDIKKKKTDNIYKSEKKSLRQRIYDGEVMFYEDYIEQLAVKDYEHFFKKPYEIKRKDEGGKNYFYGKKLEMNKEEDIYRKFYGFDDAYFLNKLQLKNKSPQKEKNKEEKQKKRNEEKILERQCGKKLSYEDKKFILNIIEENQLQDNSIYKYYMQNKCIFDKNLPEFKKKELLCGYIPDIILPANVRKVKHPKNCGVPLSSLHIYAQFIHELFKCPYIYNAIDVELGKYWKTNENELLNIMKSEKIKKGYKKDIYTATKEQLEKSSAKLKNLLKNDEVSDDTRKKFTINFKMPKKEKTNLVVSKGRYII,soluble
15,MSSKNTAEVILGGKVIKLGGYESEEYLQRVASYINNKITEFNKEESYRRMSAELRTDMMYLNIADDYFKAKKMADSLSLDIENKDKEIYDLKHELIAAQIKAESSAKEIKELKSEINKYQKNIVKLETELNDSKK,soluble
16,AKITKVQVGEALVGDGNEVAHIDLIIGPRGSPAETAFCNGLVNNKHGFTSLLAVIAPNLPCKPNTLMFNKVTINDARQAVQMFGPAQHGVAMAVQDAVAEGIIPADEADDLYVLVGVFIHWEAADDAKIQKYNYEATKLSIQRAVNGEPKASVVTEQRKSATHPFAANA,soluble
17,MENFAEIVGIGPAGVISITGGGGKTSLMFHLARQLAYSGKRVLTTTTTKILAPSVEESRTLLISQDPQVILRHAKAHPGPGVHVSAAAGHIPHTEKLQGFPREAIRTFEDSGEFDWVVVEADGAARKPLKAPAAHEPVIPGNSTIVVALAGLEVLGRPLGEEMVFRSELAGELMQIPQGETITVPALARLLAHPSGGFKGAPPQARRFIFLNKADTPELQEKGGEVALQLKEIAPSVAEAVIVGQLRQEITLHRVYPRGELEHHHHHH,soluble
18,MEHRPVLETESNLVITLVADIVAAYVSNNSIRPTEVPSLIADVHAAFRKAGNADLTEVEVEKQRPAVNPKRSIFPDYLICLEDGKKFKSLKRHLMTHYGMLPEEYREKWQLDSSYPMVAPNYAKARSALAKEMGLGRKSKRKKTK,not soluble
19,MSLDLRKSKELTGIEAHINDNKKEESNVEYFEKLRSALLDGVNKGRSLLKHLPVTRIEGQSFRVDIIKFEDGVRVVKQEYKPIPLLKKKFYVGIRELNDGTYDVSIATKAGELLVKDEESLVIREILSTEGIKKMKLSSWDNPEEALNDLMNALQEASNASAGPFGLIINPKRYAKLLKIYEKSGKMLVEVLKEIFRGGIIVTLNIDENKVIIFANTPAVLDVVVGQDVTLQELGPEGDDVAFLVSEAIGIRIKNPEAIVVLEEGHHHHHH,soluble
20,GMSRAPDTWILTADCPSMLGTVDVVTRYLFEQRCYVTEHHSFDDRQSGRFFIRVEFRQPDDFDEAGFRAGLAERSEAFGMAFELTAPNHRPKVVIMVSKADHCLNDLLYRQRIGQLGMDVVAVVSNHPDLEPLAHWHKIPYYHFALDPKDKPGQERKVLQVIEETGAELVILARYMQVLSPELCRRLDGWAINIHHSLLPGFKGAKPYHQAYNKGVKMVGATAHYINNDLDEGPIIAQGVEVVDHSHYPEDLIAKGRDIECLTLARAVGYHIERRVFLNANRTVVL,soluble
21,QLEKELEESAARYNQLAAQSRTITWEIDVTGLFTYVSPVVESVFGYLPNELVGAMRFYEIHPTEGRERFKTSFLEMFASKTIVEEVVHPVVAVDGRTIWMSTNALPILDEHGTLVGYRGACTDIS,not soluble
22,MSLREIHVDTLTDAVAKLCIDACHRLPDNLVESFHKAAEKEVSPLGKSVLMKLIDNDRIARENDVSYCHDTGLAIVFVEVGQDVHIVGGSYEDAIQAGVRKGYAEGYMRKSVVSDPLLRVNSNDNTPAVVHTEIVPGDNIEVTVVPKGGGSENWSTMKFLLPGEGAEGVKKFVLSAIEAAGGAACPPLTVGVGIGGSFDKVTAIAKKAILRDIGVHHKEPHVAKLEAELLDAINKTGIGPQGYGGVNTALWVSVETYACHITALPVAVNIQCHAGRRATAVIEGHHHHHH,soluble
23,TALSVLDLVMIGEGKTFADAIEESRQLARHVEQQHYSRYWIAEHHDMPGIGSAATSLVINEIANATRHIRVGAGGIMLPNHAPLVVAEQFGTLNTLHPGRIDLGLGRAPGTSGPTVRALRGAAPERDFGQDIAELRDYLADNGKRRVRGVPGAHDVPVWILGSSLFGADLAAKLGLPYAFASHFAPRYLLQAIAHYRANFQPSAQLAKPYVMVGMNLFAAASDAEADYLASSHRKWMLDLHVGRFGLLPKPQEGYLERLPDHERAVLDQVMACSVAGGPERVREGLRSLIEQTGADELMIDCRIHDPLARQRSHAYAAQ,not soluble
24,MGSDKIHHHHHHMQRRVPLSPDAAHCSSCMLGHVCVPVGMPANEVEKLDELVKERVRVERGKSLYELDDPLDAVYGVRYGSLKTQLEDSSGQLQITGFHLPGEIVGLDGMIESKHVSSAVALEDSEVCVIRLPEIDRVSTQLPSLQQQFRRLMSREITRSHQMLATVGAMRSEQRLAAFLLNLSQRYAALGYSSTEFVLRMSREEIGNYLGLTLETVSRLFSRFGREGLIRINQREVRLIDLPGLKQLIGQESC,not soluble
